Here are results for one protein from article PMC10786315 (Proceedings of the National Academy of Sciences of the …, 2024).

This data set concerns the molecule itself. Description: SEC.

B1: LctR (LctP Regulator, CJ1608) (natural protein, C. jejuni, UniProt Q0P820 1-295, looked up)
chain: MKVLIIENEIYLAQSISIKLSDAGYSCEIINSFDEYNGEKYYDIILLSTNTNNFLKAVGQFKHSIIILLISYISTDTVSNPLKLGASDYIQKPFMIEELIRKIKHYQDFRKLSILNKAYQSYIKSRLETIKIPEYNYKKLKLPLILKSNKQSSADAFVFNYANECDITLSFIDLTSTNSVEKVMKLPTENNLLFLSNFQALKAAEKEKLLDFIQNKNVILHTNSNTDDLKINCINLNDNEKNINSNEILTIDEYVKYVIINYQNIFPDTDLSKKLGISRKSLWEKRKKYEISKKK
For the protein B1, the stoichiometry N (commonly a count of units in the complex or per binding partner) was determined as 2.
